Reference: paper PMC11171812

Molecular target: recombinant Plasmodium knowlesi lactate dehydrogenase (Plasmodium knowlesi)
Assay: native gel or EMSA; PAGE under native (non-reducing) conditions, 2 ug purified PkLDH in native sample buffer without SDS, 10% polyacrylamide gel without SDS, Coomassie Brilliant Blue R-250; single band between 135 and 180 kDa (monomer ~35.0 kDa on SDS-PAGE)

recombinant Plasmodium knowlesi lactate dehydrogenase (enzyme)
stoichiometry N: 4
